Tests used:
[1] = Pharmacokinetics in tumor-free SD rats (HPLC, non-compartmental model); format: in vivo, Adult SD rats; conditions: single dose of 25 mg/kg, within 7 days
Experimental: Tumor-free Adult SD rats were administrated a single dose of 25 mg/kg, and four rats were used for each experimental point. The rats were sacrificed at different time points within 7 days, and the concentrations of pegylated irinotecan and its metabolite SN38 were measured and analyzed by HPLC. The analysis of pharmacokinetics was carried out by using a non-compartmental model.

[2] = system: Mouse hepatoma H22 cells; experiment: Anti-tumor effect in transplanted tumor model; format: in vivo, mice; conditions: H22 subcutaneous tumor; tumors weighed two weeks after transplantation
Experimental: An animal model of transplanted tumor was used. Mouse hepatoma H22 cells were transplanted subcutaneously into the right axillary region of mice to form solid tumors. After transplantation for 2 days and 7 days, drugs were administered intravenously via the tail vein as a single dose. Two weeks after transplantation, the mice were sacrificed by cervical dislocation, and the tumors were isolated and weighed.

[3] = nude mouse

## CCOC(=O)CC(CN)(CC(=O)OCC)CC(=O)OCC [Example T8, 8arm-PEG-Gly-IRES]
[1]
  apparent elimination half-life of the metabolite SN38, ranking between groups: the longest apparent elimination half-life
[2]
  tumor-inhibition ratio, ranking between groups: the highest tumor-inhibition ratio
[3]
  maximum tolerated dose, ranking between groups: the lowest

From patent US10660969B2, “Eight-arm polyethylene glycol derivative, production method therefor, and modified bio-related substance thereof” (priority 2015, dated 2020)
